# Measurements reported in patent US9271932B2, “Fusogenic properties of saposin C and related proteins and peptides for application to transmembrane drug delivery systems” (CHILDREN'S HOSPITAL MEDICAL CENTER, priority 2006, dated 2016).
# T1: acid β-glucosidase (Homo sapiens, UniProt P04062)
# T1 sequence (P04062 40-536): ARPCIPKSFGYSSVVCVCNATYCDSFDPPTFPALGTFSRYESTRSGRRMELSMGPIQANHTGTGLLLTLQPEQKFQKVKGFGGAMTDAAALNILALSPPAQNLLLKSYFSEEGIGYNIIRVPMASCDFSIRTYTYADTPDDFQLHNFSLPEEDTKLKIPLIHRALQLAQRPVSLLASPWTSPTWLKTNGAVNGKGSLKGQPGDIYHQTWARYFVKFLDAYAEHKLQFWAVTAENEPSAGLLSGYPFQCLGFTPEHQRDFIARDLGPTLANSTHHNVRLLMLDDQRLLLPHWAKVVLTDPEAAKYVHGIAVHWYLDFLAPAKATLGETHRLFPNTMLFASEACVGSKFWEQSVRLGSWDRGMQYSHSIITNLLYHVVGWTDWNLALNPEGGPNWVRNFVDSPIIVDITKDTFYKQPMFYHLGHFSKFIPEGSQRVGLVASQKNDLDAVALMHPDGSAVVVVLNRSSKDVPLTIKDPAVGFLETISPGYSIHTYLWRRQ
# Tests used:
# [1] = test system: cultured mouse cortical and hippocampal neurons; experiment: Transport of saposin C into cultured neurons by DOPS liposomes; assay type: cell-based; conditions: facilitated by complexes with DOPS liposomes
# Experimental: Saposin C can be transported into endosomal and lysosomal compartments using saposin-C liposomes containing long-chain anionic phospholipids. This method can be used for the treatment of neurological diseases including, for example, those in which MVB accumulation contributes to pathology and progression of disease.
# Primary Cortical Neuron Cultures—Cortical neurons are cultured in serum-free Neuroblasal medium with B27 supplements as described by Whitmarsh et al.^44 Take out E16 mouse embryos, cut the head and place them into ice-cold Ca/Mg-free Hank Balance Salt Solution (HBSS) with papain (1 mg/ml). The brain is dissected out and place scalpel along the dorsal midline between the two cerebral hemispheres but slightly deviate towards to the side as it cut. This will give a clean cerebral cortex. […]
# Immunofluorescence staining is done as described with minor modification.^15 Cultured cells (1×10^5) in a dish with coverslips are washed with PBS and fixed with 2% paraformaldehyde for 10 min at room temperature. After treating with 0.1% Triton X-100 in PBS, the samples are incubated with each respective primary antiserum (for 2 h) and fluorescence-conjugated secondary antibody (for 1 h) at 37° C. […] Antifade is added on the section to prevent the fluorescence quenching. Fluorescence signals are detected by a confocal microscopy (LSM510, Zeiss) or a fluorescence microscopy (Zeiss Axioskop).
# acid β-glucosidase = target: T1, acid β-glucosidase; experiment: Acid β-glucosidase activation in liposomal reconstitution system; assay type: biochemical
# Experimental: Functional saposins were overexpressed in BL21(DE3) cells using a pET 21a series vector. Following IPTG induction at 37° C. or 30° C., large amounts of saposins containing His-Tag were found in the soluble fraction of the disrupted cells. These were conveniently purified to electrophoretic homogeneity on nickel-loaded columns. Alternatively, saposins without His-Tag were generated by introducing a stop codon after protein coding region, and then purified using immuno-affinity columns with T7-taq monoclonal antibody. […] Circular dichroism spectra, light scattering, and ES-MS analyses were used to evaluate the physical properties of the purified saposins, such as aggregation status and molecular weight. Trp-saposins without His-Tag were also generated for necessary control experiments. The functional integrity of recombinant saposin C is determined using delipidated and homogenous acid β-glucosidase in a liposomal reconstitution system and in neuritogenic assays. Recombinant saposin B function is determined using a sulfatide binding assay.
# [2] = Vesicle size change determination (N4 plus submicron particle sizer); assay type: biochemical
# Text: The amino acid residues 51-67 are necessary, but not sufficient, for its optimal enzymatic activation function. The disulfide structure and conformational alteration of saposin C upon lipid binding are also required for this activity. Three approaches are used for this study: (1) stopped-flow monitoring reduction of self-quenching resulting from fusion of fluorescence probe-containing vesicle with non-fluorescent vesicle induced by saposin C; (2) monitoring the lipid vesicle size changes upon addition of saposin C to vesicles, the size distribution as determined using N4 plus submicron particle sizer (Coulter Co.); (3) monitoring intrinsic fluorescence of Trp-saposin C change during liposomal fusion.
# […] is used for vesicle fusion analysis, since the size of fused vesicles is bigger than those of non-fused. N4 plus submicron particle size is used to estimate particle sizes in the range of 3 nm to 3 μm since most liposomes fit in this range. Sonication conditions with a cup sonicator give mono-dispersed BPS-liposomes with ˜200 nm in size. Upon addition of saposin C, these vesicles change to a larger size up to 2-3 μm. The size increase is related to vesicles fusion as shown by the above dequenching experiments.
# Saposin C promotes the size changes at ˜50 nM concentration. To define the regions responsible for this fusion property, peptides containing only 50% of the NH2-terminal or 50% of the COOH-terminal halves in saposin C are tested. Both peptides show fusion activity.
# [3] = Fluorescence stopped-flow of saposin C binding to PS vesicles; conditions: PS(18:1,1) or BPS vesicles
# Text: To investigate temporal and spatial interactions of saposins and liposomal membrane, fluorescence stopped-flow and quenching approaches are used with Trp as the intrinsic fluorescence probe of the saposins. These experiments allow identification of regional interactions between saposins and lipid bilayers, and also the kinetics of their binding.
# This binding induces change is lipid-concentration dependent and requires at least one unsaturated fatty acid chain. To evaluate the kinetics of this interaction, stopped-flow experiments are conducted the change in fluorescence during saposin C/liposome complex formation is monitored. When saposin C(0W) is mixed with PS(18:1,1) or BPS vesicles, fluorescence of Trp is increased, but the time course of this change is undetectable due to limitation of the machine's capability. Apparently, the interaction of saposin C and unsaturated PS containing membranes occurs within at least 10 ms.
# [4] = R18 dequenching stopped-flow liposomal fusion assay; assay type: biochemical; conditions: unsaturated PS(18:1,1) vesicles, compared with Ca^2+
# Text: Fluorescence probes have been widely used to determine membrane fusion, such as fluorescence dequenching, and fluorescence resonance energy transfer (FET), and can be used for quantitative and kinetics analyses. The dequenching approach is used to investigate saposin C's fusogenic activity. Octadecyl rhodamine B (R18) is selected as fluorescence probe and is entrapped in internal aqueous compartment of liposomal vesicles by co-sonication with BPS or PS(18:1,1).
# Fluorescence increase (dequenching) of R18 occurs upon R18 concentration decreases. After non-labeled and labeled vesicles fuse, the R18 concentration is diluted, resulting in an increase in intensity of fluorescence. R18-labeled vesicles (lipid:R18=96:4, mol:mol) are mixed with the same lipid vesicles without fluorescence probe. Stopped-flow assays are conducted to quickly mix these vesicles with saposin C or Ca^2+ ion. Time-trace curves are generated for kinetic analysis. […] Fusion occurs extensively when reaction temperature is above the phase Transition temperature (Tc) of phospholipids. The Tc of synthetic PS(18:1) is about −11° C., while the Tc of PS(18:0) is very high (68° C.). Thus, the lipid bilayer phase of PS(18:1,1) is different to that of BPS(18:0 and 18:1) at 24° C.
# [5] = Saposin C-PS(18:1,1) liposome complex: stability and mechanism of fusion; assay type: biochemical
# Experimental: Protein conformational changes are thought to play a role in protein-mediated membrane fusion. This fusion mechanism is evaluated using saposin C-dependent membrane fusion. First, saposin C—PS(18:1,1) liposome complexes are formed. In this saposin C-anchored membrane, protein conformation is altered. This complex is stable from pH 3 to 10, and in low concentrations of SDS solution.
# Since the Trp in saposin C(0W) is embedded inside of lipid bilayer, the change of its signal is indicative of that the surrounding environment of Trp has been changed. After about 20 to 30 ms, Trp fluorescence signal decreases to the starting level. […] Shortly after this, the signal drops back to starting level signaling on end of the fusion process. […] Therefore, a conformational change of saposin C upon lipid binding is […] for its fusogenic activity.
molecule,measurement,setting,value
"Saposin C: Recombinant saposin C, prosaposin-derived fusogenic lysosomal protein, expressed in E. coli (His-tag) (protein, listed as Homo sapiens, His-tag) SDVYCEVCEFLVKEVTKLIDNNKTEKEILDAFDKMCSKLPKSLSEECQEVVDTYGSSILSILLEEVSPELVCSMLHLCSG",transport into neurons,[1],can be transported into the cultured mouse cortical and hippocampal neurons
same,activation of acid β-glucosidase,acid β-glucosidase,excellent activation
same,concentration promoting the size changes,[2]; BPS-liposomes,~50 nM
same,vesicle size after addition of saposin C,[2]; mono-dispersed BPS-liposomes of ~200 nm before addition,2-3 μm
same,vesicle size enlargement,"[2]; pH 4.7, over a 10 min period",enlarges vesicle size
same,vesicle size enlargement,"[2]; pH 7.4, over a 10 min period",not at pH 7.4
same,time within which interaction with unsaturated PS containing membranes occurs,[3],≤ 10 ms
same,kinetics of induced membrane fusion,[4],same kinetics as those with Ca^2+
same,fusogenic activity when bound to lipid membrane,[5],retains the fusogenic activity
"Saposin C + Phosphatidylserine (18:1, 1): saposin C complexed with acidic, unsaturated phosphatidylserine PS(18:1,1) liposomes (protein, UniProt P07602 311-390, looked up, Saposin-C complexed with phosphatidylserine liposomes, saposin C complexed with acidic, unsaturated phosphatidylserine PS(18:1,1) liposomes) Saposin-C: SDVYCEVCEFLVKEVTKLIDNNKTEKEILDAFDKMCSKLPKSLSEECQEVVDTYGSSILSILLEEVSPELVCSMLHLCSG",stability in low concentrations of SDS solution,[5],stable
"Saposin C(S37W): saposin C with a Trp at residue 37 (in the middle) (protein, UniProt P07602 311-390, looked up, variant S37W, Saposin-C) Saposin-C: SDVYCEVCEFLVKEVTKLIDNNKTEKEILDAFDKMCWKLPKSLSEECQEVVDTYGSSILSILLEEVSPELVCSMLHLCSG",effect of Trp substitutions on activation properties,acid β-glucosidase,no effect
